Laboratory results reported in IntAct's records for PubMed 31515488.

B1: Inhibitor of nuclear factor kappa-B kinase-interacting protein (Homo sapiens), Q70UQ0-4 (parent)
chain: MSEVKSRKKSGPKGAPAAEPGKRSEGGKTPVARSSGGGGWADPRTCLSLLSLGTCLGLAWFVFQQSEKFAKVENQYQLLKLETNEFQQLQSKISLISEKLESTESILQEATSSMSLMTQFEQEVSNLQDIMHDIQNNEEVLTQRMQSLNEKFQNITDFWKRSLEEMNINTDIFKSEAKHIHSQVTVQINSAEQEIKLLTERLKDLEDSTLRNIRTVKRQEEEDLLRVEEQLGSDTKAIEKLEEEQHALFARDEDLTNKLSDYEPKVEECKTHLPTIESAIHSVLRVSQDLIETEKKMEDLTMQMFNMEDDMLKAVSEIMEMQKTLEGIQYDNSILKMQNELDILKEKVHDFIAYSSTGEKGTLKEYNIENKGIGGDF
partner: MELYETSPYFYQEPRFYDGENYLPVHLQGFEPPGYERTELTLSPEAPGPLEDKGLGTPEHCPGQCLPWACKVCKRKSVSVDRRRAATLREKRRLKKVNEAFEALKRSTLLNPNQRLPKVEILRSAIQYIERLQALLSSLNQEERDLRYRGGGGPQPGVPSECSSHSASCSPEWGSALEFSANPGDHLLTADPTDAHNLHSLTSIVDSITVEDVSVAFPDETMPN
B2: Heterogeneous nuclear ribonucleoprotein R (Homo sapiens), O43390 (parent)
chain: MANQVNGNAVQLKEEEEPMDTSSVTHTEHYKTLIEAGLPQKVAERLDEIFQTGLVAYVDLDERAIDALREFNEEGALSVLQQFKESDLSHVQNKSAFLCGVMKTYRQREKQGSKVQESTKGPDEAKIKALLERTGYTLDVTTGQRKYGGPPPDSVYSGVQPGIGTEVFVGKIPRDLYEDELVPLFEKAGPIWDLRLMMDPLSGQNRGYAFITFCGKEAAQEAVKLCDSYEIRPGKHLGVCISVANNRLFVGSIPKNKTKENILEEFSKVTEGLVDVILYHQPDDKKKNRGFCFLEYEDHKSAAQARRRLMSGKVKVWGNVVTVEWADPVEEPDPEVMAKVKVLFVRNLATTVTEEILEKSFSEFGKLERVKKLKDYAFVHFEDRGAAVKAMDEMNGKEIEGEEIEIVLAKPPDKKRKERQAARQASRSTAYEDYYYHPPPRMPPPIRGRGRGGGRGGYGYPPDYYGYEDYYDDYYGYDYHDYRGGYEDPYYGYDDGYAVRGRGGGRGGRGAPPPPRGRGAPPPRGRAGYSQRGAPLGPPRGSRGGRGGPAQQQRGRGSRGSRGNRGGNVGGKRKADGYNQPDSKRRQTNNQQNWGSQPIAQQPLQQGGDYSGNYGYNNDNQEFYQDTYGQQWK
B3: Maspardin (Homo sapiens), Q9NZD8 (parent)
chain: MGEIKVSPDYNWFRGTVPLKKIIVDDDDSKIWSLYDAGPRSIRCPLIFLPPVSGTADVFFRQILALTGWGYRVIALQYPVYWDHLEFCDGFRKLLDHLQLDKVHLFGASLGGFLAQKFAEYTHKSPRVHSLILCNSFSDTSIFNQTWTANSFWLMPAFMLKKIVLGNFSSGPVDPMMADAIDFMVDRLESLGQSELASRLTLNCQNSYVEPHKIRDIPVTIMDVFDQSALSTEAKEEMYKLYPNARRAHLKTGGNFPYLCRSAEVNLYVQIHLLQFHGTKYAAIDPSMVSAEELEVQKGSLGISQEEQ
partner: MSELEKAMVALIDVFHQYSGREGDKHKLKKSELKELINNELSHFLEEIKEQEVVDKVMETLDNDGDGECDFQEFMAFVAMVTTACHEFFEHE
B4: Protein Dr1 (Homo sapiens), Q01658 (parent)
chain: MASSSGNDDDLTIPRAAINKMIKETLPNVRVANDARELVVNCCTEFIHLISSEANEICNKSEKKTISPEHVIQALESLGFGSYISEVKEVLQECKTVALKRRKASSRLENLGIPEEELLRQQQELFAKARQQQAELAQQEWLQMQQAAQQAQLAAASASASNQAGSSQDEEDDDDI
partner: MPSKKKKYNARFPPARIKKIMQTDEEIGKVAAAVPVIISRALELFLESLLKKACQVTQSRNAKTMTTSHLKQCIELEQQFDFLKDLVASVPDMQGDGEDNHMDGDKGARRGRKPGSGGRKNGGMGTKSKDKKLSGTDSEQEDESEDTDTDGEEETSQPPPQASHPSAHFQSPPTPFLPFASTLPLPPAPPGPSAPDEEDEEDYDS
B5: Myeloid leukemia factor 1 (Homo sapiens), P58340 (parent)
chain: MFRMLNSSFEDDPFFSESILAHRENMRQMIRSFSEPFGRDLLSISDGRGRAHNRRGHNDGEDSLTHTDVSSFQTMDQMVSNMRNYMQKLERNFGQLSVDPNGHSFCSSSVMTYSKIGDEPPKVFQASTQTRRAPGGIKETRKAMRDSDSGLEKMAIGHHIHDRAHVIKKSKNKKTGDEEVNQEFINMNESDAHAFDEEWQSEVLKYKPGRHNLGNTRMRSVGHENPGSRELKRREKPQQSPAIEHGRRSNVLGDKLHIKGSSVKSNKK
partner: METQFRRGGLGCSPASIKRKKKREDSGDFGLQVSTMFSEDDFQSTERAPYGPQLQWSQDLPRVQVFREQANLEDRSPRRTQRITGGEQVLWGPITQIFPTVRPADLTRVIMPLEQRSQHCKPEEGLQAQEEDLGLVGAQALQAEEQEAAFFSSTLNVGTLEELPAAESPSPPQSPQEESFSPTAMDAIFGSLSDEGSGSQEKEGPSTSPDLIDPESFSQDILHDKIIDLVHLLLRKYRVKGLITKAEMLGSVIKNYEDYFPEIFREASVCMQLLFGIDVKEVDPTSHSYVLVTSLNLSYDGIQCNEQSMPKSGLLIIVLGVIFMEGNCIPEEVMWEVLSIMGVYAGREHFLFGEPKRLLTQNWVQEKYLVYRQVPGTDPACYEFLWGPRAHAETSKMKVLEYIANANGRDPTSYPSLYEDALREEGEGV
B6: E3 ubiquitin-protein ligase RNF8 (Homo sapiens), O76064 (parent)
chain: MGEPGFFVTGDRAGGRSWCLRRVGMSAGWLLLEDGCEVTVGRGFGVTYQLVSKICPLMISRNHCVLKQNPEGQWTIMDNKSLNGVWLNRARLEPLRVYSIHQGDYIQLGVPLENKENAEYEYEVTEEDWETIYPCLSPKNDQMIEKNKELRTKRKFSLDELAGPGAEGPSNLKSKINKVSCESGQPVKSQGKGEVASTPSDNLDPKLTALEPSKTTGAPIYPGFPKVTEVHHEQKASNSSASQRSLQMFKVTMSRILRLKIQMQEKHEAVMNVKKQTQKGNSKKVVQMEQELQDLQSQLCAEQAQQQARVEQLEKTFQEEEQHLQGLEIAQGEKDLKQQLAQALQEHWALMEELNRSKKDFEAIIQAKNKELEQTKEEKEKMQAQKEEVLSHMNDVLENELQCIICSEYFIEAVTLNCAHSFCSYCINEWMKRKIECPICRKDIKSKTYSLVLDNCINKMVNNLSSEVKERRIVLIRERKAKRLF
partner: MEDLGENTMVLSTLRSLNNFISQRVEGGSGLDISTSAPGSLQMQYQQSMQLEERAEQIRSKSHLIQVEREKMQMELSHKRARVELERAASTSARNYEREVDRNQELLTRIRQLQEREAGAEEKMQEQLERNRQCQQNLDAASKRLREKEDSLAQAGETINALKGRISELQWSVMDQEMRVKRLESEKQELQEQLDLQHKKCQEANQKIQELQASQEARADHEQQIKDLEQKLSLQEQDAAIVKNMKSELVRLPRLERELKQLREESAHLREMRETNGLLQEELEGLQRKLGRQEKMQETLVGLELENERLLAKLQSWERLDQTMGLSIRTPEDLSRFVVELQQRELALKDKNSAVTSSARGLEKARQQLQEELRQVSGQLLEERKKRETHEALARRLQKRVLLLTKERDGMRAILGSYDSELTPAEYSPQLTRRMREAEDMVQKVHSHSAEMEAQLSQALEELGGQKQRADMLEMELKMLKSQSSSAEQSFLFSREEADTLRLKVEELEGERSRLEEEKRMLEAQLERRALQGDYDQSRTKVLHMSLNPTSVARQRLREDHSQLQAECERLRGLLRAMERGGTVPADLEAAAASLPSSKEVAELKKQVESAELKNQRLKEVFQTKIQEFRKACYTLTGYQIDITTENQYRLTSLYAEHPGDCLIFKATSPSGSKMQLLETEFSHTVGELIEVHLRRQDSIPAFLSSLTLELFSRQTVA
B7: Late cornified envelope protein 1B (Homo sapiens), Q5T7P3 (parent)
chain: MSCQQNQQQCQPPPKCIPKCPPKCLTPRCPPKCPPKCPPVSSCCSVSSGGCCGSSSGGSCGSSSGGCCSSGGGGCCLSHHRRRRSHCHRPQSSGCCSQPSGGSSCCGGGSGQHSGGCC
B8: Baculoviral IAP repeat-containing protein 7 (Homo sapiens), Q96CA5-1 (parent)
chain: MGPKDSAKCLHRGPQPSHWAAGDGPTQERCGPRSLGSPVLGLDTCRAWDHVDGQILGQLRPLTEEEEEEGAGATLSRGPAFPGMGSEELRLASFYDWPLTAEVPPELLAAAGFFHTGHQDKVRCFFCYGGLQSWKRGDDPWTEHAKWFPSCQFLLRSKGRDFVHSVQETHSQLLGSWDPWEEPEDAAPVAPSVPASGYPELPTPRREVQSESAQEPGGVSPAEAQRAWWVLEPPGARDVEAQLRRLQEERTCKVCLDRAVSIVFVPCGHLVCAECAPGLQLCPICRAPVRSRVRTFLS

Variants of: B1
Details: with myog_human MYOG

Row | Variant | effect of a mutation on the interaction
1 | V186G | with no effect
2 | D157Y | disrupting interaction strength

Variants of: B2
Details: with anm1_human PRMT1, Q99873
Sequence of anm1_human PRMT1, Q99873 (Q99873 whole entry, looked up): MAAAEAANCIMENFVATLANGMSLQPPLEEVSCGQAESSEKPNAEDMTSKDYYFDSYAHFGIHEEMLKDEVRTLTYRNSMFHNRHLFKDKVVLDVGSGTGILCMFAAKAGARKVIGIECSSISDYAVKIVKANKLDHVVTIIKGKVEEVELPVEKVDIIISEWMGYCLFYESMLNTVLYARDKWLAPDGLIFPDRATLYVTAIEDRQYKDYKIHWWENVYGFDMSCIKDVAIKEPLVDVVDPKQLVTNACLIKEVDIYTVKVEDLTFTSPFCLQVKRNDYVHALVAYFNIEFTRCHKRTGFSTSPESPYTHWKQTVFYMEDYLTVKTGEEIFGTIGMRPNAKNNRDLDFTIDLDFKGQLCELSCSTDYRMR

Row | Variant | effect of a mutation on the interaction
3 | S530T | with no effect

Variants of: B3
Details: with S100B

Row | Variant | effect of a mutation on the interaction
4 | H272D | disrupting interaction strength
5 | A180T | disrupting interaction strength

Variants of: B4
Details: with nc2a_human DRAP1, Q14919

Row | Variant | effect of a mutation on the interaction
6 | E171D | with no effect

Variants of: B5
Details: with magab_human MAGEA11, P43364

Row | Variant | effect of a mutation on the interaction
7 | P226T | with no effect

Variants of: B6
Details: with md1l1_human MAD1L1, Q9Y6D9

Row | Variant | effect of a mutation on the interaction
8 | V310L | with no effect

Variants of: B7
Details: with hxa1_human HOXA1, P49639
Sequence of hxa1_human HOXA1, P49639 (P49639 whole entry): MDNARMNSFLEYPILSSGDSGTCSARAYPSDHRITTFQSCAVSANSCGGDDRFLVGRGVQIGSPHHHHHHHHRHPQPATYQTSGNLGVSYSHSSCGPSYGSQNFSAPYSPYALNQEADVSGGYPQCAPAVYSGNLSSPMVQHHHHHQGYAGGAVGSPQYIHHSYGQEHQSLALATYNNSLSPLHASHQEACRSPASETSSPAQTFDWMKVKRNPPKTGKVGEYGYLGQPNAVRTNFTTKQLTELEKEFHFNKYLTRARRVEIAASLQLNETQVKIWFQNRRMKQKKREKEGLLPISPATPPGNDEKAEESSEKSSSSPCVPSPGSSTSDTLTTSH

Row | Variant | effect of a mutation on the interaction
9 | C51Y | with no effect
10 | G108E | with no effect
11 | H113Q | with no effect

Variants of: B7
Details: with nt2na_human NOTCH2NLA

Row | Variant | effect of a mutation on the interaction
12 | C51Y | with no effect
13 | G108E | with no effect
14 | H113Q | with no effect

Variants of: B7
Details: with kr101_human KRTAP10-1, P60331
Sequence of kr101_human KRTAP10-1, P60331 (P60331 whole entry): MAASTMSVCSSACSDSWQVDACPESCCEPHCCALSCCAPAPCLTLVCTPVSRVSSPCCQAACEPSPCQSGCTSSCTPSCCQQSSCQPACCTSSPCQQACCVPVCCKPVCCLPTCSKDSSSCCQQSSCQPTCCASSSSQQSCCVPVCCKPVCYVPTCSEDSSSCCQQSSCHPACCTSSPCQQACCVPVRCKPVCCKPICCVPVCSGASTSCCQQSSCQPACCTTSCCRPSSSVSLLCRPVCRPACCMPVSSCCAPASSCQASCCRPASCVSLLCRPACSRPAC

Row | Variant | effect of a mutation on the interaction
15 | C51Y | with no effect
16 | G108E | with no effect
17 | H113Q | with no effect

Variants of: B7
Details: with otx1_human OTX1, P32242
Sequence of otx1_human OTX1, P32242 (P32242 whole entry): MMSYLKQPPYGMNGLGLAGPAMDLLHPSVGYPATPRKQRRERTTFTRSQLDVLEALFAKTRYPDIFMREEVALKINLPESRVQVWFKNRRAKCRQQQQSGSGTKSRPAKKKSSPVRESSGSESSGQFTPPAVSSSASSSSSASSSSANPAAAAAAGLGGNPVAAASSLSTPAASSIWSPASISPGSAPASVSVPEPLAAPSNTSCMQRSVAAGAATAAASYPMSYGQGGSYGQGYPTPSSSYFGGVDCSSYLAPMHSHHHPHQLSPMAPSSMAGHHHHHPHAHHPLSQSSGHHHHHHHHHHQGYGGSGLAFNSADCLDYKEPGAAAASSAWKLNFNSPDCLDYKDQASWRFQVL

Row | Variant | effect of a mutation on the interaction
18 | C51Y | with no effect
19 | G108E | with no effect
20 | H113Q | with no effect

Variants of: B7
Details: with rgs20_human RGS20, O76081
Sequence of rgs20_human RGS20, O76081 (O76081 whole entry): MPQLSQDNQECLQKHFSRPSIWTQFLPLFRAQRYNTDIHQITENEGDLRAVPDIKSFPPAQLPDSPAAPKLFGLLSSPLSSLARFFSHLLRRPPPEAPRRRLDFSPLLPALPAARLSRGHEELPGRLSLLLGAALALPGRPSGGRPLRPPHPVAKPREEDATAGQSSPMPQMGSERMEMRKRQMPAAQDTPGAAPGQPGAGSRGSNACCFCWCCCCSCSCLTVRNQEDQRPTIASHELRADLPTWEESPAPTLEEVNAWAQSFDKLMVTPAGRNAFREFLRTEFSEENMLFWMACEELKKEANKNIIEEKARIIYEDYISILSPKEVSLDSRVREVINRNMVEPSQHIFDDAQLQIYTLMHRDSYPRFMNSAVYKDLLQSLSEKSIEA

Row | Variant | effect of a mutation on the interaction
21 | R83H | with no effect

Variants of: B7
Details: with kra32_human KRTAP3-2, Q9BYR7
Sequence of kra32_human KRTAP3-2, Q9BYR7 (Q9BYR7 whole entry): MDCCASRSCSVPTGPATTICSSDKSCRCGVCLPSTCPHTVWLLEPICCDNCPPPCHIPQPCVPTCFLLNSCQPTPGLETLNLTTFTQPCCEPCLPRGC

Row | Variant | effect of a mutation on the interaction
22 | R83H | with no effect

Variants of: B8
Details: with phf1_human PHF1, O43189
Sequence of phf1_human PHF1, O43189 (O43189 whole entry): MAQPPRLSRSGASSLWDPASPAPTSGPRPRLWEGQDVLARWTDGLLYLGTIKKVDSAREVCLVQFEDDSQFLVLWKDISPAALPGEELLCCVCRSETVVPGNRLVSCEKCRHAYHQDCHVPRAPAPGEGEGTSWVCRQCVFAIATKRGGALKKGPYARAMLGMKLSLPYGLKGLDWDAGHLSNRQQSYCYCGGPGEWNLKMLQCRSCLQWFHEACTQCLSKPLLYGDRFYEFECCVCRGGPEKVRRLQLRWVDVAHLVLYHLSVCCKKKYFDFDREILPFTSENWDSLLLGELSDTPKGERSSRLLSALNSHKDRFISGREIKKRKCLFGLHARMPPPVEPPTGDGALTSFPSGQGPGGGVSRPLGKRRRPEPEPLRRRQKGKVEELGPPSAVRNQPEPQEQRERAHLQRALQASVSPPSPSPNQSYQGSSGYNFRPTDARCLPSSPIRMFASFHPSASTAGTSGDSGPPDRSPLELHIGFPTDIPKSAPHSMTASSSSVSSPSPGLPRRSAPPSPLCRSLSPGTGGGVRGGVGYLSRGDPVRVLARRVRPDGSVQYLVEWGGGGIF

Row | Variant | effect of a mutation on the interaction
23 | H164R | with no effect

Variants of: B8
Details: with ddx6_human DDX6, P26196
Sequence of ddx6_human DDX6, P26196 (P26196 whole entry): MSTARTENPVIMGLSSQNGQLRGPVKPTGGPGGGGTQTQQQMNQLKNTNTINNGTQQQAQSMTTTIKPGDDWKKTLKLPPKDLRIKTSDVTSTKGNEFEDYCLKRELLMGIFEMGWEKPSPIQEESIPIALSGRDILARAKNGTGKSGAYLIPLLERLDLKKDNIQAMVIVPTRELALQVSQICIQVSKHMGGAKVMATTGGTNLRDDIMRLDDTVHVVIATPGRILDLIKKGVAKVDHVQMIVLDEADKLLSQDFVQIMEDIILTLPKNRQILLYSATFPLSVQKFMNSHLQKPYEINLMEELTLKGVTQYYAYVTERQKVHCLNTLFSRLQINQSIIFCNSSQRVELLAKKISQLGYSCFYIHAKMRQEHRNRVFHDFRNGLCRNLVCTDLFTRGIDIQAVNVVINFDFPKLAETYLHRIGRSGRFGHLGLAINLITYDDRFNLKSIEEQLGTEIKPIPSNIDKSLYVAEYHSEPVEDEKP

Row | Variant | effect of a mutation on the interaction
24 | H164R | with no effect

Variants of: B8
Details: with birc2_human BIRC2, Q13490
Sequence of birc2_human BIRC2, Q13490 (Q13490 whole entry): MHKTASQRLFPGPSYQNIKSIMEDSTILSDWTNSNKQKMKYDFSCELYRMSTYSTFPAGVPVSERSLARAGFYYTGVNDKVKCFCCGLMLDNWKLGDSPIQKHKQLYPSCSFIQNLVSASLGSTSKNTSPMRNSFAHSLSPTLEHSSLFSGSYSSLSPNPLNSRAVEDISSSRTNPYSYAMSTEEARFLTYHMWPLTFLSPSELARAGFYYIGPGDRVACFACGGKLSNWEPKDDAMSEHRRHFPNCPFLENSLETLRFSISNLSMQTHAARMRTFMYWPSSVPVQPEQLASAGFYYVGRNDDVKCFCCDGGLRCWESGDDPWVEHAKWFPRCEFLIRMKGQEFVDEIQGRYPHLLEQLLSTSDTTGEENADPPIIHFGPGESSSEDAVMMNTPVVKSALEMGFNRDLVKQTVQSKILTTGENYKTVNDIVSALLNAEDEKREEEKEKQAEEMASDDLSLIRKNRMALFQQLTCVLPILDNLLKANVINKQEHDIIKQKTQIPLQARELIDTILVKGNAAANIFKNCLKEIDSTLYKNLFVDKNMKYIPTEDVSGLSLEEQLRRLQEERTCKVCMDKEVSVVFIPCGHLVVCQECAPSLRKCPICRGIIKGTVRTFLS

Row | Variant | effect of a mutation on the interaction
25 | H164R | with no effect

Variants of: B8
Details: with ddx6_human DDX6, P26196
Remark: another data set of the same source

Row | Variant | effect of a mutation on the interaction
26 | H164R | with no effect

Variants of: B8
Details: with casp9_human CASP9, P55211
Sequence of casp9_human CASP9, P55211 (P55211 whole entry): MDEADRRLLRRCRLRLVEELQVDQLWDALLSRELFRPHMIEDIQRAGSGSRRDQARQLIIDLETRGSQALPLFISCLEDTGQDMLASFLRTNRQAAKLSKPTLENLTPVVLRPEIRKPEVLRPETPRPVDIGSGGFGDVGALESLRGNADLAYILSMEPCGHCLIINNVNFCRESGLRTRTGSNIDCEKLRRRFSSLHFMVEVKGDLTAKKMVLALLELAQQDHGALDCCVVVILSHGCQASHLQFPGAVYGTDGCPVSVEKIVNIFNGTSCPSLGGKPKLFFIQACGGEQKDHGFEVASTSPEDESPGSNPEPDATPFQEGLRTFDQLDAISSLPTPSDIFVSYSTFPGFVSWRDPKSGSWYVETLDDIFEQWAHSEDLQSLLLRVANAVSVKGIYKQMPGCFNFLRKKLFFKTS

Row | Variant | effect of a mutation on the interaction
27 | H164R | with no effect

Variants of: B8
Details: with birc2_human BIRC2, Q13490
Remark: another data set of the same source

Row | Variant | effect of a mutation on the interaction
28 | H164R | with no effect

Variants of: B8
Details: with phf1_human PHF1, O43189
Remark: another data set of the same source

Row | Variant | effect of a mutation on the interaction
29 | H164R | with no effect

Variants of: B8
Details: with casp9_human CASP9, P55211
Remark: another data set of the same source

Row | Variant | effect of a mutation on the interaction
30 | H164R | with no effect
